The source of these data is patent US20180194839A1 (Novartis, published 2018).

Positions count from the first letter of the chain named. Numbers in names are those of the source.

Assay [1] has as its target T1, recombinant mouse TNFα (R&D Systems Cat#410-MT) (mouse, UniProt P06804 80-235).
T1 construct: coated at 0.5 µg/ml; also called mTNFα
T1 sequence (looked up): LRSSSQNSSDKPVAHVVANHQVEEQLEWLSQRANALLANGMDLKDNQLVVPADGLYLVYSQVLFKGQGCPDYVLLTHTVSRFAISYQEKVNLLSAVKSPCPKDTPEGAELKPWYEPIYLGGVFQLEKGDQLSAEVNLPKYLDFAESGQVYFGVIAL
In words: ELISA, coated cytokine. (An ELISA detects its analyte on a solid surface through an enzyme-linked reagent.)

Assay [2] deals with T2, recombinant human TGFβ2 (Novartis) (human, UniProt P61812 303-414).
T2 construct: also called huTGFβ2
T2 sequence (looked up): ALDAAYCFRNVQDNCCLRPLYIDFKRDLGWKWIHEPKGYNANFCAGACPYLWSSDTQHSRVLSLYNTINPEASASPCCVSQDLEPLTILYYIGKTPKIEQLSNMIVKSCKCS
Nature of the assay: ELISA, coated cytokine.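 Note: antibodies incubated 3 h at room temperature on cytokine-coated plates, binding read out with alkaline phosphatase-conjugated anti-species IgG secondary antibodies.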

The target of assay [3] is T3, recombinant mouse IL-6 (R&D Systems Cat#406-ML-010/CF) (mouse, UniProt P08505 25-211).
T3 construct: coated at 0.5 µg/ml; also called mIL-6
T3 sequence (looked up): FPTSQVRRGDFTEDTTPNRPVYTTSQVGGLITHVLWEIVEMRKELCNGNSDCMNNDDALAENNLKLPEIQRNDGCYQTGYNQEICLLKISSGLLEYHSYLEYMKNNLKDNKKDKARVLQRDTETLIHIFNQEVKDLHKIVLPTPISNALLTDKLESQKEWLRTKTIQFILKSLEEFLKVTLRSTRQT
Nature of the assay: ELISA, coated cytokine.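 Note: antibodies incubated 3 h at room temperature on cytokine-coated plates, binding read out with alkaline phosphatase-conjugated anti-species IgG secondary antibodies.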

Assay [4] concerns the target T4, recombinant rat IL-4 (R&D Systems Cat#504-RL/CF) (rat, UniProt P20096 25-147, limits assumed).
T4 sequence (looked up): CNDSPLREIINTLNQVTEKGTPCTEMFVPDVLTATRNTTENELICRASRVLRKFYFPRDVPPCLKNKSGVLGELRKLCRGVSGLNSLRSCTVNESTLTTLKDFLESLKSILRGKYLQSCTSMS
In words: ELISA, coated cytokine.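 Note: antibodies incubated 3 h at room temperature on cytokine-coated plates, binding read out with alkaline phosphatase-conjugated anti-species IgG secondary antibodies.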

In assay [5] the target is T5, recombinant mouse IL-23 (R&D Systems Cat#1887-ML) (mouse, UniProt Q9EQ14 22-196; P43432 23-335).
T5 construct: also called mIL-23
T5 sequence (looked up) 1: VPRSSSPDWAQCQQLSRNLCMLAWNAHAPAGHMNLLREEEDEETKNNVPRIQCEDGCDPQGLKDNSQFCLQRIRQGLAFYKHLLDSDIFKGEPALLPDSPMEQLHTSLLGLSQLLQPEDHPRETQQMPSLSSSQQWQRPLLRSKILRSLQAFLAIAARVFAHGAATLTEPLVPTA
T5 sequence (looked up) 2: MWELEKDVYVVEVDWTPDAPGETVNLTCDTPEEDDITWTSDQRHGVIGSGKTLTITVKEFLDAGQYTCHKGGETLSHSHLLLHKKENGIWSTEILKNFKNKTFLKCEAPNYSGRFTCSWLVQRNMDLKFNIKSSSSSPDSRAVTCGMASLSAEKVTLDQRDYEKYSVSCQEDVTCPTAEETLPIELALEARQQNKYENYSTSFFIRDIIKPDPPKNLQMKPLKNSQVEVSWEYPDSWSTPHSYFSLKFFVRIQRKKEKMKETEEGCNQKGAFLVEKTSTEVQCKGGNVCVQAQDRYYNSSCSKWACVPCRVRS
Nature of the assay: ELISA, coated cytokine.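 Note: antibodies incubated 3 h at room temperature on cytokine-coated plates, binding read out with alkaline phosphatase-conjugated anti-species IgG secondary antibodies.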

Assay [6] has as its target T6, recombinant mouse IL-1β (R&D Systems Cat#401-ML) (mouse, UniProt P10749 118-269).
T6 construct: also called mIL-1β
T6 sequence (looked up): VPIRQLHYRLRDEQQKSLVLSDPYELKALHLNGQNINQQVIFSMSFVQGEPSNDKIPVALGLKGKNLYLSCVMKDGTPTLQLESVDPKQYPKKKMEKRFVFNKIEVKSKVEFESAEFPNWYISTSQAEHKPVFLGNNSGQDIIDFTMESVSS
In words: ELISA, coated cytokine.

The target in assay [7] is T7, recombinant human IFNγ (Roche) (human, UniProt P01579 24-166, limits assumed).
T7 construct: also called huIFNγ
T7 sequence (looked up): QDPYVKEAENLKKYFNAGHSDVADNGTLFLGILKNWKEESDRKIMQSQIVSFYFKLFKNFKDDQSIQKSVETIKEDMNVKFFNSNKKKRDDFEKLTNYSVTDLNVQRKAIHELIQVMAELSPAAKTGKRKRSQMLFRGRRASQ
In words: ELISA, coated cytokine.

Assay [8] has as its target T8, recombinant human IL-17A/F heterodimer (human, UniProt Q16552 24-155; Q96PD4 31-163, limits assumed).
T8 construct: heterodimer of an IL-17A subunit and an IL-17F subunit; also called huIL-17A/F; rhuIL-17A/F
T8 sequence (looked up) 1: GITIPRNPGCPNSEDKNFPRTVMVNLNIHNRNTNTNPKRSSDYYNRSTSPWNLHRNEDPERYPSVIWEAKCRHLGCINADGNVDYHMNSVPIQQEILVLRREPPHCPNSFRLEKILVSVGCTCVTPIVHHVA
T8 sequence (looked up) 2: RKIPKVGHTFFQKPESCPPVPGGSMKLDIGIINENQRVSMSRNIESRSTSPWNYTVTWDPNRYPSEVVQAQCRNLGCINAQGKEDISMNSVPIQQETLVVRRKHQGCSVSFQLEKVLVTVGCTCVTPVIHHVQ
In words: competition ELISA: huIL-17A/F pre-incubated with antibody, binding to coated huIL-17RA.

The target in assay [9] is T9, recombinant rat IL-17A (SEQ ID NO: 85) (rat, UniProt Q61453 18-150).
T9 sequence: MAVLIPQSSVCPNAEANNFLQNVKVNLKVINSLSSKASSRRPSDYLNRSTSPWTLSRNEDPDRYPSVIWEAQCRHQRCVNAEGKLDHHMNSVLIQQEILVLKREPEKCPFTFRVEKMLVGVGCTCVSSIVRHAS
Nature of the assay: cell-based or functional assay.

The target in assay [10] is T10, recombinant mouse IL-17A/F (R&D Systems Cat#5390-IL) (mouse, UniProt Q62386 26-158; Q7TNI7 29-161, limits assumed).
T10 sequence (looked up) 1: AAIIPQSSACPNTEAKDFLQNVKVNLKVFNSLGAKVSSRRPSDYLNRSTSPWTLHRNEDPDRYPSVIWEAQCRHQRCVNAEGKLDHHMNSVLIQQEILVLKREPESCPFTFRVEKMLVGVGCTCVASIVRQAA
T10 sequence (looked up) 2: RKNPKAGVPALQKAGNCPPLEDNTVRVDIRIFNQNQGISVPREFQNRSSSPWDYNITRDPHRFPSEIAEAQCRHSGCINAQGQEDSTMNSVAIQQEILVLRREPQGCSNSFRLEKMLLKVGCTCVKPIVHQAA
In words: cell-based or functional assay.

B1: XAB4 (antibody, human IgG1, kappa, V domains shown)
VH: EVQLVESGGDLVQPGGSLRLSCAASGFTFSSYWMSWVRQAPGKGLEWVANIKQDGSEKYYVDSVKGRFTISRDNAKNSLYLQMNSLRAEDTAVYYCARDRGSLYYWGQGTLVTVSS
VL: AIQLTQSPSSLSASVGDRVTITCRPSQGINWELAWYQQKPGKAPKLLIYDASSLEQGVPSRFSGSGSGTDFTLTISSLQPEDFATYYCQQFNSYPLTFGGGTKVEIKR
notes: also called MB435 N56Q
Usually IC50 stands for the concentration that inhibits the measured activity by half. Regarding B1, the binding result in assay [1], in assay [2], in [3], in assay [4], in [5] and in assay [6] was “no binding (tested: 10 µg/ml)” each time. In addition, the binding result in assay [7] is given as “no binding (tested: 10 µg/ml)”. The IC50 in assay [8] worked out at 154 nM. The “IC50, mouse KC secretion by CMT-93 cells; stimulus rIL-17A (1 nM)” value in assay [9] worked out at 6.7 nM. In addition, the “IC50, mouse KC secretion by CMT-93 cells; stimulus mIL-17A/F (3 nM)” value in assay [10] is 10.3 nM.

B2: XAB1 (antibody, human IgG1, kappa, V domains shown)
VH: B1 VH
VL: B1 VL with N30I, W31S, E32A, Q56N
notes: human IgG1/kappa monoclonal antibody; also called parental XAB1; XAB1 IgG
Take B2: the binding result in [1], in assay [2], in assay [3], in [4], in assay [5] and in assay [6] was “no binding (tested: 10 µg/ml)” each time. The binding result in assay [7] is listed as “no binding (tested: 10 µg/ml)”. In addition, in assay [8], the IC50 was 301 nM. In addition, the “IC50, mouse KC secretion by CMT-93 cells; stimulus rIL-17A (1 nM)” value in assay [9] worked out at 467 nM. In addition, in assay [10], the “IC50, mouse KC secretion by CMT-93 cells; stimulus mIL-17A/F (3 nM)” value was > 1000 nM.
